# From the supplement of paper PMC10065799, “High-throughput profiling of sequence recognition by tyrosine kinases and SH2 domains using bacterial peptide display” (eLife, 2023)
# Legend:
# [1] = test system: c-Src; test: phosphorylation enrichment, bacterial display (enrichment ratio); higher = better substrate or ligand; peptides without Tyr show the background
# [2] = target: Jak2 (UniProt O60674); test: as above
# [3] = target: Fes (UniProt P07332); test: as above
# [4] = target: FGFR1 (UniProt P11362); test: as above
# FGFR1, sequence (P11362 whole entry, looked up): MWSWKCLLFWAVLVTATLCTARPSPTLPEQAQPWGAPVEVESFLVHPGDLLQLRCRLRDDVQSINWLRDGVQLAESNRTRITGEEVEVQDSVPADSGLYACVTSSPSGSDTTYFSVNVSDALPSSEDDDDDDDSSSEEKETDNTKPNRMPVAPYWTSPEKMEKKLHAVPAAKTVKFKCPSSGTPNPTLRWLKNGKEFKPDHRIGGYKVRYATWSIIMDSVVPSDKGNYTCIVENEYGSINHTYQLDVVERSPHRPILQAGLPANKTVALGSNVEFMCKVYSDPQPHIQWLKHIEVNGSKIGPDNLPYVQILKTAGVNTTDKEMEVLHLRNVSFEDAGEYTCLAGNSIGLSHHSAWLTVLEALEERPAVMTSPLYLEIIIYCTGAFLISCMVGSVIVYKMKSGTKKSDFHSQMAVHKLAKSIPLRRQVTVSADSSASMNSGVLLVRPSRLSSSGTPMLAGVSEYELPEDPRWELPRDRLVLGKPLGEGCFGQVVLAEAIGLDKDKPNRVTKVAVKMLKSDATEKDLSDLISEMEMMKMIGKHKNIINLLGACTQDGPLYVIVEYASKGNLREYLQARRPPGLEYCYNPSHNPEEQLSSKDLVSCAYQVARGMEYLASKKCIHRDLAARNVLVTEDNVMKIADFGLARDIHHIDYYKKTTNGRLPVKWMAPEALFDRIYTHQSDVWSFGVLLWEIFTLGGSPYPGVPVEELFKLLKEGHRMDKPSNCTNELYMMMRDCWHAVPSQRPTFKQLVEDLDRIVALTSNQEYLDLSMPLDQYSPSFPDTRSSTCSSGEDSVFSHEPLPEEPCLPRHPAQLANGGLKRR
# [5] = target: MERTK (UniProt Q12866); test: as above
# MERTK, sequence (Q12866 whole entry, looked up): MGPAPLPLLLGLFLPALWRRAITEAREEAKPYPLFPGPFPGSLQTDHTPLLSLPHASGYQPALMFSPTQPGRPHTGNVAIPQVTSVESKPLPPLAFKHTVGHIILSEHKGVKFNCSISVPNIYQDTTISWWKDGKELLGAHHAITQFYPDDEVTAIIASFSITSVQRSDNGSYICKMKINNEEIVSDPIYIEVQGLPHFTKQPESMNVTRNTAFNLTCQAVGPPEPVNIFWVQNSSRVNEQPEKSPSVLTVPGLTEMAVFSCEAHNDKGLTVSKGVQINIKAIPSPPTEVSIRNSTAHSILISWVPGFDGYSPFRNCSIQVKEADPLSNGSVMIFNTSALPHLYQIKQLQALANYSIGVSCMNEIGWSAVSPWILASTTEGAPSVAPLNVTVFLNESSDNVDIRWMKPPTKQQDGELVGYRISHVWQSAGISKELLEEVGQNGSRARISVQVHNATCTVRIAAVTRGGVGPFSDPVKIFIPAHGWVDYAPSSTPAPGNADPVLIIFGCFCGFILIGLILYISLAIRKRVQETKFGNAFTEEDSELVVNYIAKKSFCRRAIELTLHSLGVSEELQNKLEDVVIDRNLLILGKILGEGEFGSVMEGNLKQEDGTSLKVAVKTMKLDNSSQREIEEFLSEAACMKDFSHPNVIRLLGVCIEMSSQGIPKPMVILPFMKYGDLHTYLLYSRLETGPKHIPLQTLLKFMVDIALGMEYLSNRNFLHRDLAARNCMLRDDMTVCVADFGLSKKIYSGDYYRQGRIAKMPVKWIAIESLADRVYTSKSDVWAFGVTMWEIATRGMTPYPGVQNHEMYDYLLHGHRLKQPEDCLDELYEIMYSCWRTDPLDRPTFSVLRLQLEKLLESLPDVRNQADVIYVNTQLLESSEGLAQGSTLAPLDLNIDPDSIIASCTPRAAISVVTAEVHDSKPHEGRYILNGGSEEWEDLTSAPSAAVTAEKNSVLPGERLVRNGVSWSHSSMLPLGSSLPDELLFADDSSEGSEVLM
# [6] = target: Hck (UniProt P08631); test: as above
# Hck, sequence (P08631 whole entry, looked up): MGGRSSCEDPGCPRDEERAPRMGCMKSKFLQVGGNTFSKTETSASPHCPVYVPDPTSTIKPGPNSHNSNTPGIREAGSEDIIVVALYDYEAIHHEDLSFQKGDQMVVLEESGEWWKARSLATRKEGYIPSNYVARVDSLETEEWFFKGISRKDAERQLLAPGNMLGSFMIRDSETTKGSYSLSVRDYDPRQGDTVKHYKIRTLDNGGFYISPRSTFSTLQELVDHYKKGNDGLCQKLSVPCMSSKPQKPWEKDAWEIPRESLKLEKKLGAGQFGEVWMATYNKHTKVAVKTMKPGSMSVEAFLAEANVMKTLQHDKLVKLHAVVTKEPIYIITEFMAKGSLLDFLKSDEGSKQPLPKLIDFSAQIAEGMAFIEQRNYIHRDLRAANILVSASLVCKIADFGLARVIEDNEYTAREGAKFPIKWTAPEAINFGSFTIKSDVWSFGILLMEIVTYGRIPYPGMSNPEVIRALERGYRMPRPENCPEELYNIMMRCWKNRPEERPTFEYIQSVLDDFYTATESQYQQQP
# [7] = target: FGFR3 (UniProt P22607); test: as above
# [8] = test system: Fer (mouse); test: as above
# [9] = test system: c-Abl (mouse); test: as above
# [10] = target: Fyn (UniProt P06241); test: as above
# Fyn, sequence (P06241 whole entry, looked up): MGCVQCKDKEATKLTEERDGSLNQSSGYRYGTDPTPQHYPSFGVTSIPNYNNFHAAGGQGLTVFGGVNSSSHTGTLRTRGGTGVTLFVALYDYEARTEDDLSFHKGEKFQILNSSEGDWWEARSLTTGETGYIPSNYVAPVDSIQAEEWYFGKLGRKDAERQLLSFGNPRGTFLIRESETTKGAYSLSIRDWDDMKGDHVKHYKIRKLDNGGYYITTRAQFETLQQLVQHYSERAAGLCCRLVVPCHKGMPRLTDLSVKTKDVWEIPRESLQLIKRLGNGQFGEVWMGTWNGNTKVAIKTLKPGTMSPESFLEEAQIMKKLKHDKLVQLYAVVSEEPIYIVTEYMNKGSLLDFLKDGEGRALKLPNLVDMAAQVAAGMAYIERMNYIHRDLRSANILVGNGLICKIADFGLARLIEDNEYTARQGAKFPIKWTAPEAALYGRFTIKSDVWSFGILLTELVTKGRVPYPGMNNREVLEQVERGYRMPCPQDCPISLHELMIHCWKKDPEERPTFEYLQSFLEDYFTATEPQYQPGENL
# [11] = target: EPHB1 (UniProt P54762); test: as above
# [12] = target: EPHB2 (UniProt P29323); test: as above
# EPHB2, sequence (P29323 whole entry, looked up): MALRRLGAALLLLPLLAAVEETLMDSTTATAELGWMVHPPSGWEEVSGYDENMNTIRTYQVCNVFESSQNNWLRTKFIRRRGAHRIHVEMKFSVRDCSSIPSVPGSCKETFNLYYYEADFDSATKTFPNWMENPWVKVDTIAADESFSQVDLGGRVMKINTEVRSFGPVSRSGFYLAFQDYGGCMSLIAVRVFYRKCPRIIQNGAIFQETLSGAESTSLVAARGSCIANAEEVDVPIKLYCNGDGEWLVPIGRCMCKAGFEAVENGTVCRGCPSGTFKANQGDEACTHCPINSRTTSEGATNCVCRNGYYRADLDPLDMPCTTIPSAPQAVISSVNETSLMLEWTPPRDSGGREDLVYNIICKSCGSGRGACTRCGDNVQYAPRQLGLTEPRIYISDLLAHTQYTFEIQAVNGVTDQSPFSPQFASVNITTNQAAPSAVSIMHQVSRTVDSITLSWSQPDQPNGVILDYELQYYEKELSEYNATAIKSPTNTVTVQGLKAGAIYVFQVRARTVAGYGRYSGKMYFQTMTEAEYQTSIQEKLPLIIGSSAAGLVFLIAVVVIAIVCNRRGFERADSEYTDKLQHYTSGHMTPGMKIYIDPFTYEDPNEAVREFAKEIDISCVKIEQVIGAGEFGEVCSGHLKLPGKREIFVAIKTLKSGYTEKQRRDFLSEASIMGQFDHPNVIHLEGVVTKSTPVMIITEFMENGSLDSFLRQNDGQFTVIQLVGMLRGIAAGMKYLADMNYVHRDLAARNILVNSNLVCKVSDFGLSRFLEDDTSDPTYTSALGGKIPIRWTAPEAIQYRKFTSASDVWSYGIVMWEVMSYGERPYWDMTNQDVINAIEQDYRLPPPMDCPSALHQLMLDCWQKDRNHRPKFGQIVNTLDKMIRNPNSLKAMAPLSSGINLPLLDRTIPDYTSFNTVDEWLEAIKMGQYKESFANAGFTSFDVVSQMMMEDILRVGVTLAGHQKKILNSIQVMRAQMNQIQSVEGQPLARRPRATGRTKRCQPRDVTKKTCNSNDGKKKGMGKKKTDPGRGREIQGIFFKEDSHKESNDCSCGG
# [13] = test system: AncSZ; test: as above
# [14] = target: SHP2-C SH2; test: SH2 binding enrichment of the phosphorylated peptide, bacterial display (enrichment ratio); higher = better substrate or ligand; peptides without Tyr show the background
# [15] = target: Grb2 SH2 (UniProt P62993); test: as above
# [16] = target: c-Src SH2; test: as above
# 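For SH2 binding enrichment of the phosphorylated peptide, bacterial display in this document: peptide library displayed on the E. coli surface as eCPX fusions, selected cells deep-sequenced, score is each peptide's frequency after selection divided by its frequency in the input.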
# 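For phosphorylation enrichment, bacterial display in this document: 11-residue human phosphosite peptides and single-mutation variants displayed on the E. coli surface, counted by deep sequencing, each peptide's frequency after selection divided by its frequency in the unselected input library; frequency after pTyr selection over input frequency; kinase dosed for 20-30% of maximal phosphorylation in three min.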
# Jak2, sequence (O60674 whole entry, looked up): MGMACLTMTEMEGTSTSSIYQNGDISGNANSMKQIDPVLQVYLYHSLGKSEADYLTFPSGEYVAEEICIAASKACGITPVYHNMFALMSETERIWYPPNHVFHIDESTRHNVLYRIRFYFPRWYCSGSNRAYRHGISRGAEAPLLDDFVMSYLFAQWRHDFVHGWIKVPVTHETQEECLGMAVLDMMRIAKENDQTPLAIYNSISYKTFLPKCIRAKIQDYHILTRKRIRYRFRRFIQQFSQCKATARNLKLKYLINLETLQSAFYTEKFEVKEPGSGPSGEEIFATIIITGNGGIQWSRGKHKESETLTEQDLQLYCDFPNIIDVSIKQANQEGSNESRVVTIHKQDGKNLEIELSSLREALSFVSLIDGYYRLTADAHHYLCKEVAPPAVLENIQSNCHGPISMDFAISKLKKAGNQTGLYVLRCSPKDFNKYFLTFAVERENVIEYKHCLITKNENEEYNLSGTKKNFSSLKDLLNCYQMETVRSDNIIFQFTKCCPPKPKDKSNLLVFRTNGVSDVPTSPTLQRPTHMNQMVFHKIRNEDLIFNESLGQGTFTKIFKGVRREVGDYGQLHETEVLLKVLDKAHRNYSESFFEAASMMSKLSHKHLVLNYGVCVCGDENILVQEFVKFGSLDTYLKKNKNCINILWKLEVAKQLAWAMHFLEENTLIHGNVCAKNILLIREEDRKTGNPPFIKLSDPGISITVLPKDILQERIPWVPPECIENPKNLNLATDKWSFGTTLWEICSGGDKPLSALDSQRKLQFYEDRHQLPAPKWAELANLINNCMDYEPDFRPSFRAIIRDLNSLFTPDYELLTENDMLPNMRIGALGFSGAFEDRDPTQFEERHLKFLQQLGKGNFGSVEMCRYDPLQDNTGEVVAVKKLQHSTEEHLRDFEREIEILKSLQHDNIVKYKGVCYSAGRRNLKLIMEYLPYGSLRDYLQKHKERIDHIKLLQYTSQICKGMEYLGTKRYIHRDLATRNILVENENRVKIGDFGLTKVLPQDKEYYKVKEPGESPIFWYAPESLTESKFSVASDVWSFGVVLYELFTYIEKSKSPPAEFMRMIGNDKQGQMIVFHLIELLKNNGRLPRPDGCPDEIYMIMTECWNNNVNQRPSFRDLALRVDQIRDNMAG
Sequence,phosphorylation enrichment [1],phosphorylation enrichment [2],phosphorylation enrichment [3],phosphorylation enrichment [4],phosphorylation enrichment [5],phosphorylation enrichment [6],phosphorylation enrichment [7],phosphorylation enrichment [8],phosphorylation enrichment [9],phosphorylation enrichment [10],phosphorylation enrichment [11],phosphorylation enrichment [12],phosphorylation enrichment [13],SH2 binding enrichment [14],SH2 binding enrichment [15],SH2 binding enrichment [16]
QSSEGYDLGDR [KIAA1210_Y564_G565D],0.688,1.09,1.43,0.416,0.501,0.546,0.714,0.607,1.12,0.948,0.644,0.853,1.41,1.26,1.13,0.719
WIPIQYPIISE [NOG_Y222],0.354,0.622,0.807,0.394,0.343,0.439,0.571,0.508,0.59,0.427,0.421,0.439,0.782,1.35,1.14,0.807
NDTAGYFIIGG [SEL1L3_Y399],0.584,6.38,1.14,1.77,0.834,0.601,1.34,0.494,0.78,0.582,0.547,0.523,1.15,0.812,0.693,7.59
GGSDRYGSLRP [MYLK_Y846],0.452,0.716,0.61,0.425,0.37,0.339,0.407,0.332,0.495,0.385,0.385,0.418,0.494,0.562,0.997,0.428
AGLEDYDRLRP [RAC3_Y64_Q61L],0.485,0.931,0.933,0.836,0.402,0.894,0.744,0.62,0.657,0.544,0.505,0.791,1.13,0.888,0.732,0.547
NTGDFCDLFGG [PTPN11_Y63_Y63C_YF],0.413,0.969,1.11,0.511,0.486,0.578,0.653,0.487,0.655,0.499,0.584,0.555,1.01,0.823,1.15,0.632
KDPPDYKYQPR [SOX9_Y172_H169P],0.538,0.663,0.788,0.461,0.375,0.353,0.479,0.421,0.747,0.51,0.489,0.518,0.837,1.02,1.02,0.503
VSYGEYRYRSV [CFTR_Y515_D513G],3.22,0.612,0.824,0.505,0.363,2.04,0.469,0.442,0.605,5.66,0.452,0.416,0.688,0.369,0.529,0.451
LPSKDYAEVGR [HP_Y272],0.709,0.684,2.22,0.918,0.801,0.951,0.895,0.801,0.726,0.735,1.15,1.24,0.654,0.717,0.766,2.68
SNPAFYVLEGV [INPPL1_Y987_N982S_YF],0.732,0.765,1.06,0.509,0.517,0.441,0.63,0.427,0.646,0.648,0.469,0.559,0.818,0.752,0.919,0.714
CEAMEYPESKQ [BTK_Y511_L512P],0.548,1.3,1.42,0.571,0.46,0.572,0.736,0.705,0.952,0.543,0.676,0.735,1.28,0.728,0.976,0.66
SVVVPYELPEV [TP53_Y220_P222L],0.545,1.09,1.29,0.553,0.47,0.58,0.723,0.581,0.848,0.503,0.643,0.659,1.65,0.614,0.765,1.78
YRDALYKFIVD [PHEX_Y250_M253I],0.638,1,1.25,0.952,1.65,0.706,1.38,0.759,0.916,0.623,1.97,1.02,1.08,0.774,0.774,0.683
QEIATYRRLLE [KRT14_Y415],0.503,0.693,0.936,0.509,0.464,0.453,0.68,0.411,0.563,0.562,0.418,0.53,0.689,0.58,0.862,0.413
QYQEKYKQVEQ [HCN4_Y531],0.491,0.858,1.12,1.17,0.375,0.579,1.3,0.576,0.493,0.821,0.908,0.721,1.44,0.971,0.958,0.743
RKPDIYERLAS [MCM4_Y459],2.04,0.702,1.2,0.671,1.65,4.52,0.798,0.943,0.901,0.99,0.927,0.903,0.846,0.71,0.734,0.643
TIQRMYGCDVG [HLA-A_Y123_I121R],0.594,0.789,1.05,0.56,0.448,0.45,0.598,0.46,0.775,0.442,0.504,0.57,0.761,0.968,0.636,0.479

Sequence,phosphorylation enrichment [1],phosphorylation enrichment [2],phosphorylation enrichment [3],phosphorylation enrichment [4],phosphorylation enrichment [5],phosphorylation enrichment [6],phosphorylation enrichment [7],phosphorylation enrichment [8],phosphorylation enrichment [9],phosphorylation enrichment [10],phosphorylation enrichment [11],phosphorylation enrichment [12],phosphorylation enrichment [13],SH2 binding enrichment [14],SH2 binding enrichment [15],SH2 binding enrichment [16]
MSPPGYKLVTG [GJA1_Y286],0.429,0.686,0.715,0.476,0.397,0.418,0.533,0.516,0.485,0.427,0.667,0.381,0.541,0.512,0.701,0.286
IGEGTSGVVFK [CDK2_Y15_Y15S_YF],0.405,0.582,0.878,0.339,0.409,0.449,0.561,0.382,0.501,0.365,0.418,0.457,0.66,0.786,0.844,0.515
GIMEEYQLPYY [BMPR1A_Y453_V450M],3.76,1.28,1.4,2.23,0.398,0.998,1.57,0.942,1.25,1.4,0.748,0.795,5.83,0.44,0.845,5.46
QYPDIYAREEV [CRX_Y67_V66I],1.54,2.02,2.14,1.23,1.48,2.6,1.41,1.29,2.12,1.84,1.63,1.02,3.09,0.299,0.687,0.552
EEQKKNFNAMK [SCN5A_Y1494_Y1494N_YF],0.385,0.691,0.711,0.38,0.409,0.512,0.546,0.369,0.607,0.376,0.381,0.494,0.908,0.644,0.895,0.474
EDDIIYTQDFM [STK11_Y362_T367M],1.1,1.21,1.31,0.911,0.784,0.992,1.25,0.776,0.889,1.03,0.697,0.746,1.49,0.65,0.984,0.466
MKSIKYMDKEI [CCDC60_Y41],0.447,0.603,0.569,0.452,0.44,0.402,0.389,0.514,0.457,0.375,0.399,0.392,0.578,0.525,0.797,0.405
ERFSYYGMKAV [SLC15A2_Y61],1.4,4.66,0.767,4.94,0.9,1.37,4.31,0.386,0.578,0.8,0.477,0.658,0.993,0.85,0.877,0.978
KIKGRYEKCEP [KRT26_Y119_W118R],0.579,1.37,1.13,0.562,0.478,0.546,1.17,0.584,1.25,0.412,0.614,0.526,0.808,1.9,1.67,1.81
YETSHYLASPD [CTNND2_Y1217_P1218L],0.529,0.809,0.961,0.649,0.784,0.554,0.633,0.685,0.821,0.523,0.59,0.767,1.09,0.675,1.11,1.1
EEGENYQKGER [CHGB_Y173],0.463,0.963,1.15,0.509,0.425,0.467,0.731,0.518,0.797,0.518,0.53,0.571,0.921,0.602,0.816,0.436
ACVARYIFKRL [LPCAT3_Y348_W344C],0.545,0.683,0.841,0.502,0.492,0.426,0.553,0.492,0.606,0.635,0.407,0.51,0.979,0.859,0.89,0.753
SFCFRYRCAPR [SUMF1_Y344_A348P_YF],0.701,0.811,0.69,0.509,0.73,0.633,0.587,0.726,0.75,0.605,0.527,0.549,0.883,0.584,0.783,0.486
VTQEQYELYCE [CBL_Y368],0.892,1.17,1.32,0.622,0.571,0.989,0.894,0.887,0.883,0.684,0.814,0.71,1.75,0.577,1.04,0.625
FPPDGYSRHCE [CTNND1_Y213_Y217C_YF],0.376,0.741,0.904,0.477,0.383,0.473,0.661,0.485,0.584,0.431,0.565,0.542,0.784,0.706,0.985,0.617
PGLKGYPGLSG [COL4A2_Y306_R304K],0.347,0.422,0.468,0.369,0.367,0.434,0.318,0.218,0.639,0.213,0.474,0.307,0.476,0.504,0.652,0.431
